Like-named read-outs stand apart in the source and are kept apart here. Blank lines part the entries; values can stand above or below the molecule they belong to.
Columns and labels:
[1] = target: membrane-bound single-chain I-A^d-OVA (SCT1 construct) on transfected NSO cells (mouse (I-A^d); chicken (OVA peptide)); assay: flow cytometry, FITC-conjugated AMS 32.1 1:100 on T12 (SCT1-transfectant)
[2] = target: I-A^d on NSO parental cells (untransfected negative control, H-2^d background) (mouse) (UniProt P04228); assay: flow cytometry, FITC-conjugated AMS 32.1 1:100 on NSO (parental) cells
[3] = target: membrane-bound single-chain I-A^d-OVA (SCT1 construct) on transfected NSO cells (mouse (I-A^d); chicken (OVA peptide)); assay: flow cytometry, FITC-conjugated AMS 32.1 1:100 on T6 (SCT1-transfectant)
[4] = target: membrane-bound single-chain I-A^d-OVA (SCT1 construct) on transfected NSO cells (mouse (I-A^d); chicken (OVA peptide)); assay: flow cytometry, FITC-conjugated AMS 32.1 1:100 on T2 (SCT1-transfectant)
[5] = target: membrane-bound single-chain I-A^d-OVA (SCT1 construct) on transfected NSO cells (mouse (I-A^d); chicken (OVA peptide)); assay: flow cytometry, FITC-conjugated 10-3.6 isotype control 1:100 on T2 (SCT1-transfectant)
[6] = target: membrane-bound single-chain I-A^d-OVA (SCT1 construct) on transfected NSO cells (mouse (I-A^d); chicken (OVA peptide)); assay: flow cytometry, FITC-conjugated 10-3.6 isotype control 1:100 on T12 (SCT1-transfectant)
[7] = target: I-A^d on NSO parental cells (untransfected negative control, H-2^d background) (mouse) (UniProt P04228); assay: flow cytometry, FITC-conjugated 10-3.6 isotype control 1:100 on NSO (parental) cells
[8] = target: membrane-bound single-chain I-A^d-OVA (SCT1 construct) on transfected NSO cells (mouse (I-A^d); chicken (OVA peptide)); assay: flow cytometry, FITC-conjugated 10-3.6 isotype control 1:100 on T6 (SCT1-transfectant)
[9] = target: soluble single-chain I-A^d-OVA from insect cells (SSC1 gene in pMBSC1.2, SF9 cells) (mouse (I-A^d); chicken (OVA peptide)); assay: sandwich ELISA, M5/114 capture and biotinylated AMS-32.1 detection; cotransfection mix supernatant, diluted 1:8
[10] = target: soluble single-chain I-A^d-OVA from insect cells (SSC1 gene in pMBSC1.2, SF9 cells) (mouse (I-A^d); chicken (OVA peptide)); assay: sandwich ELISA, M5/114 capture and biotinylated AMS-32.1 detection; supernatant of virus clone F8
[11] = target: soluble single-chain I-A^d-OVA from insect cells (SSC1 gene in pMBSC1.2, SF9 cells) (mouse (I-A^d); chicken (OVA peptide)); assay: sandwich ELISA, M5/114 capture and biotinylated AMS-32.1 detection; cotransfection mix supernatant, diluted 1:4
[12] = target: soluble single-chain I-A^d-OVA with EE antibody tag (SCE1 construct) secreted by transfected NSO cells (mouse (I-A^d); chicken (OVA peptide)); assay: sandwich ELISA of Example 18, M5/114 capture and biotinylated AMS-32.1 detection; undiluted culture supernatant of E10 (SCE1 transfectant)
[13] = target: soluble single-chain I-A^d-OVA with EE antibody tag (SCE1 construct) secreted by transfected NSO cells (mouse (I-A^d); chicken (OVA peptide)); assay: sandwich ELISA of Example 18, M5/114 capture and biotinylated AMS-32.1 detection; undiluted culture supernatant of E11 (SCE1 transfectant)
[14] = target: Neuron Specific Enolase (NSE), supernatant of SF9 cells infected with recombinant Baculovirus; assay: sandwich ELISA, M5/114 capture and biotinylated AMS-32.1 detection; supernatant of SF9 cells infected with NSE Baculovirus (negative control)
[15] = target: soluble single-chain I-A^d-OVA from insect cells (SSC1 gene in pMBSC1.2, SF9 cells) (mouse (I-A^d); chicken (OVA peptide)); assay: sandwich ELISA, M5/114 capture and biotinylated AMS-32.1 detection; supernatant of virus clone C6
[16] = target: soluble single-chain I-A^d-OVA from insect cells (SSC1 gene in pMBSC1.2, SF9 cells) (mouse (I-A^d); chicken (OVA peptide)); assay: sandwich ELISA, M5/114 capture and biotinylated AMS-32.1 detection; cotransfection mix supernatant, undiluted
[17] = target: soluble single-chain I-A^d-OVA from insect cells (SSC1 gene in pMBSC1.2, SF9 cells) (mouse (I-A^d); chicken (OVA peptide)); assay: sandwich ELISA of Example 18, M5/114 capture and biotinylated AMS-32.1 detection; sc I-A^d-OVA from insect cell culture (positive control)
[18] = target: soluble single-chain I-A^d-OVA from insect cells (SSC1 gene in pMBSC1.2, SF9 cells) (mouse (I-A^d); chicken (OVA peptide)); assay: sandwich ELISA, M5/114 capture and biotinylated AMS-32.1 detection; cotransfection mix supernatant, diluted 1:2
[19] = target: T cell receptor of the murine T cell hybridoma DO11.10 (I-A^d restricted, OVA peptide 323-339 specific) (mouse); assay: cell-based or functional assay
[20] = target: T cell receptor of the murine T cell hybridoma DO11.10 (I-A^d restricted, OVA peptide 323-339 specific) (mouse); assay: cell-based or functional assay; remark: listed apart in the source

Molecule: AMS-32.1 anti-IA^d (Pharmingen) (antibody)
Mean Fluorescence [1]: 911
Mean Fluorescence [2]: 280
Mean Fluorescence [3]: 418
Mean Fluorescence [4]: 613

Molecule: M5/114 (ATCC TIB 120) anti-IA^d (antibody)
Absorbance (405 nm) [9]: 0.165 absorbance
Absorbance (405 nm) [10]: 1.45 absorbance
Absorbance (405 nm) [11]: 0.305 absorbance
Absorbance (405 nm) [12]: 0.781 absorbance
Absorbance (405 nm) [13]: 0.96 absorbance
Absorbance (405 nm) [14]: 0.098 absorbance
Absorbance (405 nm) [15]: 1.56 absorbance
Absorbance (405 nm) [16]: 0.857 absorbance
Absorbance (405 nm) [17]: 2.44 absorbance
Absorbance (405 nm) [18]: 0.524 absorbance

B2: I-A^d on A20 cells with added OVA 323-339 peptide (peptide-MHC, mouse)
MHC II alpha: EDDIEADHVGFYGTTVYQSPGDIGQYTHEFDGDELFYVDLDKKKTVWRLPEFGQLILFEPQGGLQNIAAEKHNLGILTKRSNFTPATNEAPQATVFPKSPVLLGQPNTLICFVDNIFPPVINITWLRNSKSVTDGVYETSFLVNRDHSFHKLSYLTFIPSDDDIYDCKVEHWGLEEPVLKHWEPEIPAPMSELTETVVCALGLSVGLVGIVVGTIFIIQGLRSGGTSRHPGPL
MHC II beta: GNSERHFVVQFKGECYYTNGTQRIRLVTRYIYNREEYVRYDSDVGEYRAVTELGRPDAEYWNSQPEILERTRAEVDTACRHNYEGPETSTSLRRLEQPNVAISLSRTEALNHHNTLVCSVTDFYPAKIKVRWFRNGQEETVGVSSTQLIRNGDWTFQVLVMLEMTPHQGEVYTCHVEHPSLKSPITVEWRAQSESARSKMLSGIGGCVLGVIFLGLGLFIRHRSQKGPRGPPPAGLLQ
peptide: SISQAVHAAHAEINEAGR
IL-2 ELISA result (Absorbance), DO11.10 with A20 + OVA 323-339 peptide (positive control) [19]: 1.33 Absorbance
IL-2 ELISA result (Absorbance), DO11.10 with A20 + OVA 323-339 peptide (positive control) [20]: 1.45 Absorbance

More lines, now with the values ahead:

Mean Fluorescence [5]: 22
Mean Fluorescence [6]: 45.9
Mean Fluorescence [7]: 32.1
Mean Fluorescence [8]: 45.1
Molecule: isotype matched FITC-conjugated anti-I-A^k antibody, 10-3.6 (PharMingen)

IL-2 ELISA result (Absorbance), DO11.10 with NSO (parental cell line) as antigen presenting cell [19]: 0.047 Absorbance
IL-2 ELISA result (Absorbance), DO11.10 with NSO (parental cell line) as antigen presenting cell [20]: 0.078 Absorbance
B1: I-A^d on NSO parental cells (untransfected negative control, H-2^d background) (protein, mouse)
MHC II alpha: B2 MHC II alpha
MHC II beta: B2 MHC II beta

IL-2 ELISA result (Absorbance), DO11.10 with T2 (SCT1 transfectant) as antigen presenting cell [19]: 0.758 Absorbance
IL-2 ELISA result (Absorbance), DO11.10 with T6 (SCT1 transfectant) as antigen presenting cell [19]: 0.307 Absorbance
IL-2 ELISA result (Absorbance), DO11.10 with T12 (SCT1 transfectant) as antigen presenting cell [20]: 1.03 Absorbance
B3: membrane-bound single-chain I-A^d-OVA (SCT1 construct) on transfected NSO cells (peptide-MHC)
chain: TMALQIPSLLLSAAVVVLMVLSSPRTLSISQAVHAAHAEINEAGRASGGGGSGGGGNSERHFVVQFKGECYYTNGTQRIRLVTRYIYNREEYVRYDSDVGEYRAVTELGRPDAEYWNSQPEILERTRAEVDTACRHNYEGPETSTSLRRLEQPNVAISLSRTEALNHHNTLVCSVTDFYPAKIKVRWFRNGQEETVGVSSTQLIRNGDWTFQVLVMLEMTPHQGEVYTCHVEHPSLKSPITVEWTSGGGGSGGGGSGGGGSGGGGSSSEDDIEADHVGFYGTTVYQSPGDIGQYTHEFDGDELFYVDLDKKKTVWRLPEFGQLILFEPQGGLQNIAAEKHNLGILTKRSNFTPATNEAPQATVFPKSPVLLGQPNTLICFVDNIFPPVINITWLRNSKSVTDGVYETSFLVNRDHSFHKLSYLTFIPSDDDIYDCKVEHWGLEEPVLKHWEPEIPAPMSELTETVVCALGLSVGLVGIVVGTIFIIQGLRSGGTSRHPGPL

IL-2 concentration in DO11 super, 39 ng/well immobilized scIA^d-OVA (extended dilution) [19]: 0 U/ml
IL-2 concentration in DO11 super, 78 ng/well immobilized sc IA^d-OVA [19]: 45 U/ml
IL-2 concentration in DO11 super, 78 ng/well immobilized scIA^d-OVA (extended dilution) [19]: 17 U/ml
IL-2 concentration in DO11 super, 156 ng/well immobilized sc IA^d-OVA [19]: 100 U/ml
IL-2 concentration in DO11 super, 156 ng/well immobilized scIA^d-OVA (extended dilution) [19]: 24 U/ml
IL-2 concentration in DO11 super, 312 ng/well immobilized sc IA^d-OVA [19]: 109 U/ml
IL-2 concentration in DO11 super, 312 ng/well immobilized scIA^d-OVA (extended dilution) [19]: 35 U/ml
IL-2 concentration in DO11 super, 625 ng/well immobilized sc IA^d-OVA [19]: 116 U/ml
IL-2 concentration in DO11 super, 625 ng/well immobilized scIA^d-OVA (extended dilution) [19]: 38 U/ml
IL-2 concentration in DO11 super, 1250 ng/well immobilized sc IA^d-OVA [19]: 126 U/ml
IL-2 concentration in DO11 super, 2500 ng/well immobilized sc IA^d-OVA [19]: 143 U/ml
IL-4 concentration in DO11 super, 78 ng/well immobilized sc IA^d-OVA [19]: 7 U/ml
IL-4 concentration in DO11 super, 156 ng/well immobilized sc IA^d-OVA [19]: 10 U/ml
IL-4 concentration in DO11 super, 312 ng/well immobilized sc IA^d-OVA [19]: 16 U/ml
IL-4 concentration in DO11 super, 625 ng/well immobilized sc IA^d-OVA [19]: 15 U/ml
IL-4 concentration in DO11 super, 1250 ng/well immobilized sc IA^d-OVA [19]: 20 U/ml
IL-4 concentration in DO11 super, 2500 ng/well immobilized sc IA^d-OVA [19]: 23 U/ml
IL-r [IL-4] concentration in DO11 super, 39 ng/well immobilized scIA^d-OVA (extended dilution) [19]: 0 U/ml
IL-r [IL-4] concentration in DO11 super, 78 ng/well immobilized scIA^d-OVA (extended dilution) [19]: 0.8 U/ml
IL-r [IL-4] concentration in DO11 super, 156 ng/well immobilized scIA^d-OVA (extended dilution) [19]: 0.9 U/ml
IL-r [IL-4] concentration in DO11 super, 312 ng/well immobilized scIA^d-OVA (extended dilution) [19]: 1.5 U/ml
IL-r [IL-4] concentration in DO11 super, 625 ng/well immobilized scIA^d-OVA (extended dilution) [19]: 2 U/ml
B4: soluble single-chain I-A^d-OVA from insect cells (SSC1 gene in pMBSC1.2, SF9 cells) (peptide-MHC)
chain: TMALQIPSLLLSAAVVVLMVLSSPRTLSISQAVHAAHAEINEAGRASGGGGSGGGGNSERHFVVQFKGECYYTNGTQRIRLVTRYIYNREEYVRYDSDVGEYRAVTELGRPDAEYWNSQPEILERTRAEVDTACRHNYEGPETSTSLRRLEQPNVAISLSRTEALNHHNTLVCSVTDFYPAKIKVRWFRNGQEETVGVSSTQLIRNGDWTFQVLVMLEMTPHQGEVYTCHVEHPSLKSPITVEWTSGGGGSGGGGSGGGGSGGGGSSSEDDIEADHVGFYGTTVYQSPGDIGQYTHEFDGDELFYVDLDKKKTVWRLPEFGQLILFEPQGGLQNIAAEKHNLGILTKRSNFTPATNEAPQATVFPKSPVLLGQPNTLICFVDNIFPPVINITWLRNSKSVTDGVYETSFLVNRDHSFHKLSYLTFIPSDDDIYDCKVEHWGLEEPVLKHWSRASHHHHHH
